Reference: publication PMC10518009

Columns and labels:
[1] = target: SARS-CoV-2 spike (RBD)-Fc (SARS-CoV-2) (UniProt P0DTC2); assay: ELISA; BPS Bioscience #79936 kit: plate coated with spike (RBD)-Fc, serial concentrations of test compound (200-12.5) added, kit completed as in its manual, luminescence
[2] = target: ACE2-His (human) (UniProt Q9BYF1); assay: ELISA; BPS Bioscience #79936 kit: ACE2-His held on a 96-well nickel-coated plate, test compound (25-200 µg/mL) incubated 60 min at room temperature, then spike (RBD)-Fc added for 60 min, anti-mouse Fc-HRP, chemiluminescence
Chain of ACE2-His (human) (Q9BYF1 18-805): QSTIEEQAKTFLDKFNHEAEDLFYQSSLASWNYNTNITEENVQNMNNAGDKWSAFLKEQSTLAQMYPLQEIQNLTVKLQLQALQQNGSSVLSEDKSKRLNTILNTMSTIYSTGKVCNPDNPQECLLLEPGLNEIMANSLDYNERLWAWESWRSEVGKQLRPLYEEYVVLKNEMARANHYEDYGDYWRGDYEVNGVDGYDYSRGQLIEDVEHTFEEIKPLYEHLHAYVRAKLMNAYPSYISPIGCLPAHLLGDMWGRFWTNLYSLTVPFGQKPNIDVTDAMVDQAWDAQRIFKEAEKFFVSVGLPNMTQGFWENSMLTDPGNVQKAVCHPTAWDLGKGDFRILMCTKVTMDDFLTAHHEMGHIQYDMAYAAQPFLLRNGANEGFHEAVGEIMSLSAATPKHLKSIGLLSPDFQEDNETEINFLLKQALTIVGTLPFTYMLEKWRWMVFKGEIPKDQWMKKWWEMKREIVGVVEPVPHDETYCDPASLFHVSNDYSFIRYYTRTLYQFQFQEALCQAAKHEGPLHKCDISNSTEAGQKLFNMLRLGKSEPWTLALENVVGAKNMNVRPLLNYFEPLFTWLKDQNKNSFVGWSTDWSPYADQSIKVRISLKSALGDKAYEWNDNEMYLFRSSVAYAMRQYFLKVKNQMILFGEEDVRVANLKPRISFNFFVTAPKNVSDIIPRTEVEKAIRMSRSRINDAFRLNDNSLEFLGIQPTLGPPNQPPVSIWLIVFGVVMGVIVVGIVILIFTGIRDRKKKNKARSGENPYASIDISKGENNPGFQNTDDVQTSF

| Substance | maximum percent inhibition (RBD neutralization) [1] [%] | maximum percent inhibition of ACE2/spike at 200 mg concentration [2] [%] |
| --- | --- | --- |
| bovine lactoferrin (natural protein) | 94 |  |
| bovine lactoferrin (natural protein; other documents disagree on this pair) |  | 33 |
